# Measured values: the supplement of paper PMC10567573
# B1: KCNAB2 (parent)
# chain: YVDVVFANRPDPNTPMEETVRAMT
# Variants of: B1
# Test: protein stability index of a GFP-peptide fusion (GPS, HEK-293T) (PSI 1-6); higher = more stable
# Settings: c terminus: a fixed tail appended
# 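Further: lentivirally expressed fusions sorted by FACS into six bins by GFP to DsRed ratio, PSI derived from sequencing read proportions per bin multiplied by bin number.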
row,Variant,protein stability index
1,YVDVVFANRPDHNTPMEETVRAMT,1.37
2,YVDVVFANRPDQNTPMEETVRAMT,2.43
3,YVDVVFANRPDINTPMEETVRAMT,1.83
4,YVDVVFANRPDFNTPMEETVRAMT,2.02
5,YVDVVFANRPDCNTPMEETVRAMT,2.08
6,YVDVVFANRPDRNTPMEETVRAMT,1.46
7,YVDVVFANRPDGNTPMEETVRAMT,2.31
8,YVDVVFANRPDKNTPMEETVRAMT,2.16
9,YVDVVFANRPDLNTPMEETVRAMT,2.51
10,YVDVVFANRPDNNTPMEETVRAMT,1.28
11,YVDVVFANRPDMNTPMEETVRAMT,2.03
12,YVDVVFANRPDANTPMEETVRAMT,2.27
13,YVDVVFANRPDDNTPMEETVRAMT,1.65
14,YVDVVFANRPDENTPMEETVRAMT,1.65
15,YVDVVSANRPDPNTPMEETVRAMT,2.79
16,YVDVVNANRPDPNTPMEETVRAMT,3.01
17,YVDVVTANRPDPNTPMEETVRAMT,3.11
18,YVDVVGANRPDPNTPMEETVRAMT,3.16
19,YVDVVVANRPDPNTPMEETVRAMT,1.94
20,YVDVVPANRPDPNTPMEETVRAMT,2.09
21,YVDVVWANRPDPNTPMEETVRAMT,3.77
22,YVDVVMANRPDPNTPMEETVRAMT,2.3
23,YVDVVEANRPDPNTPMEETVRAMT,3.63
24,YVDVVLANRPDPNTPMEETVRAMT,2.15

row,Variant,protein stability index
1,YVDVVDANRPDPNTPMEETVRAMT,4.17
2,YVDVVIANRPDPNTPMEETVRAMT,1.99
3,YVDVVYANRPDPNTPMEETVRAMT,2.13
4,YVDVVAANRPDPNTPMEETVRAMT,2.79
5,YVDVVRANRPDPNTPMEETVRAMT,2.05
6,YVDVVQANRPDPNTPMEETVRAMT,3.1
7,YVDVVCANRPDPNTPMEETVRAMT,2.18
8,YVDVVHANRPDPNTPMEETVRAMT,2.42
9,YVDVVKANRPDPNTPMEETVRAMT,2.66
10,YVDVWFANRPDPNTPMEETVRAMT,1.59
11,YVDVTFANRPDPNTPMEETVRAMT,2.12
12,YVDVEFANRPDPNTPMEETVRAMT,2.5
13,YVDVQFANRPDPNTPMEETVRAMT,1.65
14,YVDVKFANRPDPNTPMEETVRAMT,1.82
15,YVDVAFANRPDPNTPMEETVRAMT,2.29
16,YVDVCFANRPDPNTPMEETVRAMT,1.9
17,YVDVHFANRPDPNTPMEETVRAMT,2.09
18,YVDVFFANRPDPNTPMEETVRAMT,3.07
19,YVDVPFANRPDPNTPMEETVRAMT,2.01
20,YVDVMFANRPDPNTPMEETVRAMT,3.01
21,YVDVIFANRPDPNTPMEETVRAMT,2.09
22,YVDVLFANRPDPNTPMEETVRAMT,2.2
23,YVDVDFANRPDPNTPMEETVRAMT,2.13
24,YVDVRFANRPDPNTPMEETVRAMT,2.45

row,Variant,protein stability index
1,YVDVGFANRPDPNTPMEETVRAMT,2.49
2,YVDVNFANRPDPNTPMEETVRAMT,2.06
3,YVDVSFANRPDPNTPMEETVRAMT,1.93
4,YVDVYFANRPDPNTPMEETVRAMT,2.03
5,YVIVVFANRPDPNTPMEETVRAMT,4.3
6,YVTVVFANRPDPNTPMEETVRAMT,1.82
7,YVEVVFANRPDPNTPMEETVRAMT,1.87
8,YVKVVFANRPDPNTPMEETVRAMT,2.13
9,YVQVVFANRPDPNTPMEETVRAMT,1.91
10,YVFVVFANRPDPNTPMEETVRAMT,2.71
11,YVWVVFANRPDPNTPMEETVRAMT,2.8
12,YVCVVFANRPDPNTPMEETVRAMT,2.31
13,YVMVVFANRPDPNTPMEETVRAMT,3.61
14,YVAVVFANRPDPNTPMEETVRAMT,2
15,YVHVVFANRPDPNTPMEETVRAMT,2.07
16,YVNVVFANRPDPNTPMEETVRAMT,2.01
17,YVLVVFANRPDPNTPMEETVRAMT,2.51
18,YVGVVFANRPDPNTPMEETVRAMT,2.85
19,YVSVVFANRPDPNTPMEETVRAMT,2.99
20,YVPVVFANRPDPNTPMEETVRAMT,1.2
21,YVYVVFANRPDPNTPMEETVRAMT,2.34
22,YVRVVFANRPDPNTPMEETVRAMT,2.28
23,YVVVVFANRPDPNTPMEETVRAMT,2.48
24,YVDVVFANRPNPNTPMEETVRAMT,1.67

row,Variant,protein stability index
1,YVDVVFANRPEPNTPMEETVRAMT,1.6
2,YVDVVFANRPIPNTPMEETVRAMT,2.2
3,YVDVVFANRPAPNTPMEETVRAMT,2.79
4,YVDVVFANRPFPNTPMEETVRAMT,2.46
5,YVDVVFANRPMPNTPMEETVRAMT,2.04
6,YVDVVFANRPVPNTPMEETVRAMT,2.53
7,YVDVVFANRPQPNTPMEETVRAMT,2.5
8,YVDVVFANRPWPNTPMEETVRAMT,1.94
9,YVDVVFANRPSPNTPMEETVRAMT,1.39
10,YVDVVFANRPYPNTPMEETVRAMT,2.42
11,YVDVVFANRPPPNTPMEETVRAMT,1.67
12,YVDVVFANRPLPNTPMEETVRAMT,1.89
13,YVDVVFANRPCPNTPMEETVRAMT,1.77
14,YVDVVFANRPGPNTPMEETVRAMT,2.19
15,YVDVVFANRPTPNTPMEETVRAMT,2.76
16,YVDVVFANRPRPNTPMEETVRAMT,1.47
17,YVDVVFANRPKPNTPMEETVRAMT,2.05
18,YVDVVFANRPHPNTPMEETVRAMT,2.28
19,YVDLVFANRPDPNTPMEETVRAMT,2.66
20,YVDMVFANRPDPNTPMEETVRAMT,2.87
21,YVDNVFANRPDPNTPMEETVRAMT,1.64
22,YVDKVFANRPDPNTPMEETVRAMT,2.31
